Source: PMC10698194

Biological target: mouse KOR-EGFP (mouse) (UniProt P33534)
Sequence (P33534 whole entry): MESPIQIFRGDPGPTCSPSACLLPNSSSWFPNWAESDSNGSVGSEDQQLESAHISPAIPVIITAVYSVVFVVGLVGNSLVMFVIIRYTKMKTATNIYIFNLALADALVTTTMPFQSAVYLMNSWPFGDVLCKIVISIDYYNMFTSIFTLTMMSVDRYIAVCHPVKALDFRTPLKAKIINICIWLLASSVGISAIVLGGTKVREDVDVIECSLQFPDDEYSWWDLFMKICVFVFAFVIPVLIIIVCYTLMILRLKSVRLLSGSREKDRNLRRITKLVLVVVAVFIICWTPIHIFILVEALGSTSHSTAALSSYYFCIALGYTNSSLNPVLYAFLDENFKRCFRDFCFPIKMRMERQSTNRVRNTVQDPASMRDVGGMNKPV

dynorphin (dyn) A_(1-13) (peptide)
β-arrestin-2 recruitment (BRET), EC50: 31 nM
